# Data published in the supplement of paper PMC10724198.
# ± gives the standard deviation of the averaged measurements.
# Test system: Saccharomyces cerevisiae
# Test: protein stability index of tFT-peptide fusion (C-terminal peptide) (PSI (0-1 scale)); higher = more stable (slower turnover)
# Conditions: genetic background: wild type; temperature: 30 C
# 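Note: PSI is a weighted mean of sequencing reads over stability bins, variants kept only with over 10 reads, mCherry proximal and sfGFP distal, peptide attached via GGGS linker.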
row,Sequence,protein stability index
1,LNDEKIKGKTTK,0.732 ± 0.012
2,LNGSRDEHKVMS,0.674 ± 0.022
3,LNIPARVSGAVV,0.636 ± 0.017
4,LNLRIGDVMRGG,0.682 ± 0.022
5,LNNAIAGGSVGI,0.702 ± 0.074
6,LNSRQATLRPQT,0.716 ± 0.021
7,LNVVLTRTSVRY,0.657 ± 0.041
8,LNYRVLTKVDER,0.717 ± 0.048
9,LPAILALVPRYP,0.674 ± 0.022
10,LPAISSPIPPSL,0.701 ± 0.048
11,LPAPLGPRIPSL,0.753 ± 0.15
12,LPARFLIDFTRV,0.688 ± 0.029
13,LPATCFSPPSSS,0.687 ± 0.057
14,LPFLFTSFAPAA,0.776 ± 0.081
15,LPGEHSEFNYLL,0.7198 ± 0.0036
16,LPGGECSLKGQQ,0.701 ± 0.079
17,LPGTTFTPPVAS,0.662 ± 0.008
18,LPHCPLNVFPLV,0.654 ± 0.034
19,LPHLFLSVPSSP,0.665 ± 0.038
20,LPLDSPSRPLPP,0.722 ± 0.011
21,LPLFTIVPPFFF,0.59 ± 0.011
22,LPLPGSFTLNYP,0.733 ± 0.013
23,LPLPLLLFPPPH,0.677 ± 0.041

row,Sequence,protein stability index
1,LPLRPPPSLLSR,0.689 ± 0.064
2,LPMGTRGPAPGP,0.73 ± 0.12
3,LPNLTIPSRAIA,0.623 ± 0.0054
4,LPPCLEYLRVLR,0.658 ± 0.07
5,LPPFSSPLSSLR,0.693 ± 0.016
6,LPPHRPPAPDLS,0.674 ± 0.049
7,LPPLLPSLSHAR,0.6459 ± 0.003
8,LPPLPHLLSLYL,0.658 ± 0.076
9,LPPPLPPPPPPV,0.651 ± 0.017
10,LPPPLVPPLPSP,0.7017 ± 0.0023
11,LPPPPLLIPLPT,0.605 ± 0.062
12,LPPPPPASPPSP,0.703 ± 0.01
13,LPPPPPILHLPS,0.6463 ± 0.005
14,LPPPPPPPPPPP,0.60887 ± 2.4e-05
15,LPPPPPPSHPPP,0.697 ± 0.018
16,LPPPPSAPHPSP,0.668 ± 0.023
17,LPPPPYPEFYPC,0.772 ± 0.0089
18,LPPPRPLPRPCP,0.748 ± 0.096
19,LPPPRSLPPILS,0.656 ± 0.017
20,LPPRPSPPRRPP,0.666 ± 0.016
21,LPPSPPPPPRQS,0.739 ± 0.013
22,LPPSPPTPPQYT,0.6977 ± 0.003
23,LPPSSPLPPPPP,0.77 ± 0.047

row,Sequence,protein stability index
1,LPRAGLVLSPLH,0.661 ± 0.051
2,LPRERSFRLYKA,0.739 ± 0.016
3,LPRPHARPPLSS,0.583 ± 0.066
4,LPRPPPLAGPPL,0.734 ± 0.013
5,LPRPPPPPPPSP,0.827 ± 0.098
6,LPRPTRLRTTPA,0.685 ± 0.044
7,LPRSSRFPSPSR,0.765 ± 0.012
8,LPRVPCRLAPPP,0.689 ± 0.055
9,LPSLASPRLIPS,0.609 ± 0.0066
10,LPSLPPPPSPSS,0.641 ± 0.029
11,LPSLTPPPLLLS,0.582 ± 0.0083
12,LPSPLGSSIFSN,0.693 ± 0.015
13,LPSSVLTAAPSA,0.661 ± 0.076
14,LPSTHVPPEPLG,0.679 ± 0.077
15,LPTATSFNALNS,0.714 ± 0.072
16,LPTHYHQSHTEP,0.681 ± 0.052
17,LPTPRRHFRPPP,0.657 ± 0.028
18,LPTVVTAVHQGL,0.671 ± 0.014
19,LPVPLPYFVSYF,0.607 ± 0.009
20,LPVPPPPVSVAN,0.554 ± 0.0089
21,LPVSPDTLSPPL,0.678 ± 0.022
22,LPWGGVVVGSMV,0.73 ± 0.019
23,LQCGDWVETTGS,0.709 ± 0.031

row,Sequence,protein stability index
1,LQHSLNRKEIET,0.688 ± 0.014
2,LQLFLWRVVAPV,0.477 ± 0.038
3,LQLLPPGLRQLP,0.679 ± 0.0079
4,LQTLSTLLPSLL,0.689 ± 0.023
5,LRANSCCPLFGS,0.739 ± 0.0036
6,LRARTPPPSHLP,0.693 ± 0.02
7,LRCWVGGALCGG,0.685 ± 0.033
8,LREKFFWTRIRR,0.724 ± 0.05
9,LRFLPHIPSGLS,0.716 ± 0.019
10,LRFRPLSGRAFF,0.664 ± 0.051
11,LRFSFFSSLFVL,0.516 ± 0.019
12,LRGAGAGPEDVG,0.6847 ± 0.0026
13,LRGGGGAGVFFG,0.6491 ± 0.0025
14,LRHGLASYDHCG,0.681 ± 0.02
15,LRHHARSYLPRL,0.805 ± 0.18
16,LRLFCVLARSVV,0.528 ± 0.018
17,LRLHPSPPVPSR,0.7003 ± 0.0047
18,LRPLSFPTHTLL,0.685 ± 0.021
19,LRPPFFLSPLPS,0.728 ± 0.034
20,LRPPLASLRFSP,0.78 ± 0.11
21,LRQQTRGTIIEC,0.703 ± 0.029
22,LRRAFPSSTPLK,0.698 ± 0.088
23,LRSGFVVTLSLS,0.621 ± 0.037

row,Sequence,protein stability index
1,LRSLNIVGTTAL,0.66 ± 0.043
2,LRSLVRSRPAPP,0.6744 ± 0.0042
3,LRSVISLSSLFS,0.686 ± 0.011
4,LRTKRGKREEYD,0.73 ± 0.015
5,LRVFPVFSWFDR,0.678 ± 0.15
6,LRYSPLLFLSVV,0.513 ± 0.013
7,LSALPSRPCSKR,0.6893 ± 0.005
8,LSAVISHLGNSK,0.65058 ± 0.0002
9,LSCTTSSRPSPP,0.699 ± 0.063
10,LSDDRTLFWISG,0.728 ± 0.13
11,LSDFSLPTFLLL,0.72 ± 0.065
12,LSFFLSSALLHP,0.7 ± 0.028
13,LSFPSPSLCRPL,0.694 ± 0.1
14,LSFSDPLSLPRH,0.675 ± 0.079
15,LSFTFSQLLSFP,0.681 ± 0.16
16,LSGPLILHLTSL,0.693 ± 0.057
17,LSGRGVGSEGME,0.721 ± 0.14
18,LSGTLALVVFTR,0.6464 ± 0.001
19,LSGYIFFSFRSF,0.505 ± 0.01
20,LSKTRRPKSADM,0.7 ± 0.025
21,LSLGVYMGVGRG,0.629 ± 0.0074
22,LSLICSLVHSIM,0.635 ± 0.016
23,LSLPRCPKGVAH,0.672 ± 0.055

row,Sequence,protein stability index
1,LSLSNILDYFYC,0.685 ± 0.044
2,LSLSTTLSADLY,0.678 ± 0.021
3,LSLVDCIGFFFC,0.603 ± 0.043
4,LSLYGLLLPTFE,0.714 ± 0.037
5,LSPALPPPMSAA,0.577 ± 0.026
6,LSPCPPLRPLLS,0.676 ± 0.081
7,LSPFPSCLPPSV,0.702 ± 0.045
8,LSPGPVHDRSRP,0.675 ± 0.03
9,LSPIPLPPPLTS,0.699 ± 0.044
10,LSPLHSPCLPCP,0.679 ± 0.039
11,LSPPPSPLPPLP,0.679 ± 0.019
12,LSPRPPSPPPPP,0.688 ± 0.011
13,LSPRTMYHAYPV,0.712 ± 0.067
14,LSPSGATFWTPS,0.676 ± 0.055
15,LSRGGVSCWWGH,0.772 ± 0.033
16,LSRGLVVSFVLK,0.662 ± 0.014
17,LSSFIHCLYSHC,0.606 ± 0.035
18,LSSRVYDCTRQG,0.675 ± 0.045
19,LSSSLLSLLYNF,0.534 ± 0.039
20,LSTCVAESIEST,0.68 ± 0.01
21,LSTPPRLPQPSP,0.703 ± 0.051
22,LSVLPAFYPRSP,0.758 ± 0.045
23,LSVPPFSFTLSL,0.807 ± 0.25

row,Sequence,protein stability index
1,LSVPWSTRPFSV,0.703 ± 0.019
2,LSYSLSSPRVFH,0.7337 ± 0.0022
3,LTDITGSIRNVH,0.673 ± 0.037
4,LTDKHNETNINQ,0.6501 ± 0.0042
5,LTFSRFIENHYL,0.662 ± 0.015
6,LTGSPDSNPNSV,0.68 ± 0.084
7,LTHQENNIWVSR,0.703 ± 0.057
8,LTLPPLPPPSLP,0.707 ± 0.0081
9,LTLTQAPVRTDF,0.677 ± 0.018
10,LTPFFSRPSVLL,0.72 ± 0.019
11,LTPRPLPRLSPP,0.705 ± 0.028
12,LTPYLYPQPSSP,0.673 ± 0.031
13,LTQPPPAPRVFF,0.699 ± 0.013
14,LTRRSPSPRTLT,0.644 ± 0.03
15,LTSLIPPLPFLF,0.669 ± 0.032
16,LTSSGLSFSAVL,0.7249 ± 0.0027
17,LTYLLFPSSLQA,0.677 ± 0.04
18,LVAYSPRFLHSP,0.669 ± 0.038
19,LVCLFRGCGLRD,0.714 ± 0.0084
20,LVCRYLGLRCSD,0.597 ± 0.035
21,LVFCPCQSVVSL,0.59 ± 0.043
22,LVFGRGCGWLSG,0.664 ± 0.0071
